From patent US9644034B2, “Anti-RSPO2 antibodies and uses thereof” (OncoMed Pharmaceuticals, Inc., priority 2011, dated 2017) come the findings set out here.

Assay [1] concerns β-catenin signaling induced by RSPO3. As to the kind of experiment: TOPflash luciferase assay in HEK-293 cells, Wnt3a plus human RSPO3. The class given is cell-based. To be noted: Wnt3a 5 ng/ml, RSPO3 10 ng/ml. The method, then: (§1) HEK-293 cells were transfected with a 6×TCF-luciferase reporter vector (TOPflash, Millipore, Billerica, Mass.). After 24-48 hrs, the transfected HEK-293 cells were incubated with a combination of Wnt3a (5 ng/ml) and human RSPO2 (10 ng/ml, R&D BioSystems) or human RSPO3 (10 ng/ml, R&D BioSystems) in the presence of anti-RSPO2 antibodies 130M23, 130M24, 130M25, 130M26, 130M27, and 130M28. Cells were incubated with a combination of Wnt3a and RSPO, Wnt3a only or with no addition as controls. The cells were incubated for 16 hours and luciferase activity was measured using Steady-Glo® Luciferase Assay System according to the manufacturer's instructions (Promega, Madison, Wis.).

For another assay, the target named is T1, binding of RSPO2 to LGR5 (Homo sapiens, UniProt Q6UXX9).
T1 construct: full-length human RSPO1, RSPO2, RSPO3 and RSPO4 were ligated in-frame to a human Fc region; made in house; host or cells: RSPO2-Fc: insect cells (baculovirus); LGR5 construct: transiently transfected HEK-293
T1 sequence (Q6UXX9 22-243 L186P): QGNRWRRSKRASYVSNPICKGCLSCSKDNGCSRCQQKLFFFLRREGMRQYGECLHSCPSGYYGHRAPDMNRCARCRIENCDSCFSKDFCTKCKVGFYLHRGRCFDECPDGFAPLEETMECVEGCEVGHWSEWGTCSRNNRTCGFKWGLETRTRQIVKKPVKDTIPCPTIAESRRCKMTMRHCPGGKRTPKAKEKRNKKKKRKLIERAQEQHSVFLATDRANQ
As to the kind of experiment: FACS: blocking of soluble RSPO2-Fc binding to LGR5 on HEK-293 cells. To be noted: RSPO2-Fc 10 μg/ml. As to the method: HEK-293 cells were transiently transfected with the FLAG-LGR5-CD4TM-GFP construct (previously described in Example 2). After 48 hours, transfected cells were suspended in ice cold PBS containing 2% FBS and heparin and incubated on ice in the presence of RSPO2-Fc protein (10 μg/ml) and antibodies 130M23, 130M24, 130M25, 130M26, 130M27, and 130M28. A second incubation with 100 μl PE-conjugated anti-human Fc secondary antibody was performed to detect cells bound by the RSPO2-Fc fusion protein. The cells were analyzed on a FACSCalibur instrument (BD Biosciences, San Jose, Calif.) and the data was processed using FlowJo software.
(In general: In flow cytometry, cells or beads pass a laser one at a time.)

Assay [2] deals with T2, human RSPO2 (Homo sapiens, UniProt Q6UXX9).
T2 construct: followed by the furin-like domains of RSPO2 (aa 31-146); expressed in transfected cells; host or cells: HEK-293
T2 sequence (Q6UXX9 31-146): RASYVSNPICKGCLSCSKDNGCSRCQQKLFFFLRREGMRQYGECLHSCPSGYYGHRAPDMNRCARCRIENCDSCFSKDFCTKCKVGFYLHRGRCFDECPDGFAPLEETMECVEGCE
As to the kind of experiment: FACS binding of 130M23 and humanized 130M23 to HEK293 cells expressing FLAG-RSPO2furin-CD4TM-GFP. To be noted: five-fold serial dilutions. The method, then:
HEK293 cells were transiently transfected with an expression vector encoding FLAG-RSPO2furin-CD4TM-GFP. As described in Example 11, FLAG-RSPO2furin-CD4TM-GFP is a chimeric fusion protein enabling cell surface expression of the N-terminal furin-like domains of human RSPO2. FLAG-RSPO2furin-CD4TM-GFP transfected cells were incubated in the presence of anti-RSPO2 antibody 130M23 or humanized anti-RSPO2 antibody […]. Five-fold serial dilutions of each antibody were examined for their ability to bind to the RSPO2 expressing cells. The cells were stained with Phycoerythrin conjugated anti-IgG to reveal bound antibody. The cells were analyzed on a FACSCalibur instrument (BD Biosciences, San Jose, Calif.) and the data was processed using FlowJo software.

Another assay concerns β-catenin signaling. As to the kind of experiment: Luciferase assay in STF-293 cells with LU2 cells, lung tumor cell-conditioned medium and Wnt3a-L cell-conditioned medium. The class given is cell-based, human. As to the method: Conditioned medium from human lung tumor LU2 cells was prepared as described in Example 3 and soluble LGR5-Fc was produced as described in Example 2.
STF-293 cells were incubated with LU2 cells plus 25% lung tumor cell-conditioned medium plus 25% Wnt3a-L cell-conditioned medium. Antibody 130M23 and soluble LGR5-Fc were added to the cells in 5-fold serially dilutions from 50 μg/ml to 0.0006 μg/ml. An irrelevant monoclonal antibody, similarly diluted, and a control Fc fusion protein (50 ug/ml) were used as negative controls. The cells were incubated for 20 hours and luciferase activity was measured using Steady-Glo® Luciferase Assay System according to the manufacturer's instructions (Promega, Madison, Wis.).

Assay [3] has as its target T2, human RSPO2. As to the kind of experiment: FACS screening of hybridoma supernatants on HEK-293 cells expressing FLAG-RSPO2furin-CD4TM-GFP. The class given is binding. The source says: Antibodies were generated against recombinant human RSPO2 protein amino acids 22-205 (R&D Systems, Minneapolis, Minn.). Mice (n=3) were immunized with RSPO2 protein using standard techniques. Sera from individual mice were screened against RSPO2 approximately 70 days after initial immunization using FACS analysis. The animal with the highest antibody titer was selected for final antigen boost after which spleen cells were isolated for hybridoma production. SP2/0 cells were used as fusion partners for the mouse spleen cells. Hybridoma cells were plated at 1 cell per well in 96 well plates, and the supernatants were screened against human RSPO2 by FACS analysis.
As described in Example 5, for FACS screening of anti-RSPO2 antibodies a chimeric fusion protein enabling cell surface expression of the N-terminal furin-like domains of human RSPO2 was constructed. Similar to what is depicted in FIG. 5A for RSPO1, the RSPO2 fusion protein contains a N-terminal FLAG tag, followed by the furin-like domains of RSPO2 (aa 31-146) and fused to the transmembrane and intracellular domain of human CD4 and a C-terminal green fluorescent protein tag (FLAG-RSPO2furin-CD4TM-GFP).
HEK-293 cells were transfected with FLAG-RSPO2furin-CD4TM-GFP. […] The cells were analyzed on a FACSCalibur instrument (BD Biosciences, San Jose, Calif.) and the data was processed using FlowJo software.

The subject of a further assay is PN7 tumors. As to the kind of experiment: Serial transplantation of cells from treated PN7 tumors (tumorigenicity). The assay is classed as in vivo, NOD-SCID mice. To be noted: 90 cells injected, 40 days growth with no treatment; vs control antibody. As to the method:
The PN7 tumors described above were processed to yield single cell suspensions. Mouse cells were depleted from the cell mixtures using biotinylated anti-H2K^d and anti-CD45 antibodies and streptavidin-conjugated magnetic beads. The remaining human tumor cells were serially transplanted into a new cohort of mice. 90 tumor cells from each treatment group were injected into the flanks of NOD-SCID mice (n=10 mice per group). Tumors were allowed to grow for 40 days with no treatment and tumor volumes were measured with electronic calipers.

Assay [4] relates to PN31 pancreatic tumor cells. As to the kind of experiment: PN31 pancreatic tumor xenograft growth in NOD/SCID mice. The assay is classed as in vivo. To be noted: antibodies 15 mg/kg once a week, intraperitoneal. As to the method: Dissociated PN31 pancreatic tumor cells (1×10^5cells) were injected subcutaneously into the flanks of 6-8 week old NOD/SCID mice. Tumors were allowed to grow for 61 days until they reached an average volume of 120 mm^3. The mice were randomized (n=10 per group) and treated with anti-RSPO1 antibody 89M5, anti-RSPO2 antibody 130M23, gemcitabine, a combination of 89M5 and gemcitabine, a combination of 130M23 and gemcitabine, or control antibody 1B7.11. Antibodies were dosed at 15 mg/kg once a week, and gemcitabine was dosed at […] once a week. Administration of the antibodies and gemcitabine was performed via injection into the intraperitoneal cavity. Tumor growth was monitored and tumor volumes were measured with electronic calipers at specific time points. Data are expressed as mean±S.E.M.

The test system of assay [5] is PN7 pancreatic tumor cells. As to the kind of experiment: PN7 pancreatic tumor xenograft growth in NOD/SCID mice. The class given is in vivo. As to the method:
Dissociated PN7 pancreatic tumor cells (1×10^5cells) were injected subcutaneously into the flanks of 6-8 week old NOD/SCID mice. Tumors were allowed to grow for 25 days until they reached an average volume of 130 mm^3. The mice were randomized (n=10 per group) and treated with anti-RSPO2 antibody 130M23, anti-FZD antibody 18R5, gemcitabine, a combination of 130M23 and gemcitabine, a combination of 18R5 and gemcitabine, a combination of 130M23 and 18R5, a combination of 130M23, 18R5 and gemcitabine, or control antibody 1B7.11. Anti-RSPO2 antibody 130M23 was dosed at 10 mg/kg once a week, anti-FZD antibody 18R5 was dosed at 20 mg/kg once a week, and gemcitabine was dosed at […] once a week. Administration of the antibodies and gemcitabine was performed via injection into the intraperitoneal cavity. Tumor growth was monitored and tumor volumes were measured with electronic calipers at specific time points. Data are expressed as mean±S.E.M. A parallel set of experiments included mice treated with a FZD8-Fc soluble receptor (10 mg/kg) in combination with gemcitabine and FZD8-Fc in combination with 130M23 and gemcitabine.

The subject of assay [6] is RSPO2-induced β-catenin signaling. As to the kind of experiment: TOPflash luciferase assay in HEK-293 cells, Wnt3a plus human RSPO2. To be noted: Wnt3a 5 ng/ml, RSPO2 10 ng/ml. The class given is cell-based. As to the method:
as §1

B1: 130M23: anti-RSPO2 monoclonal antibody, hybridoma ATCC PTA-12021; variable regions SEQ ID NO:27 and SEQ ID NO:28 (antibody, V domains shown)
VH: EVKLVESGGGLVKPGGSLKFSCAASGFSFSSYAMSWVRQTPEKRLEWVASISSGGSTYYPDSVKGRFTISRDNVRNILYLQMSSLRSEDTAMYFCARGGDPGVYNGDYEDAMDYWGQGTSVTVSS
VL: DIVMTQSHKFMSTSVGDRVSITCKASQDVSSAVAWYQQKPGQSPKLLIYWASTRHTGVPDRFTNSGSGTDYTLTISSVQAEDLALYYCQQHYSTPWTFGGGTKLEIK
modifications: 130M23 Heavy chain variable region; 130M23 Light chain variable region
Consider B1, for which, in assay [1], the “blocking of β-catenin signaling induced by RSPO3” value is on record as “did not block”. Also, the “blocking of binding of RSPO2 to LGR5” value in the assay with binding of RSPO2 to LGR5 is “blocked”. Besides, the “binding to human RSPO2 (FACS)” value in the assay with human RSPO2 [2] is on record as “bind”. Besides, the “induction of luciferase activity by lung tumor cell-conditioned medium and Wnt3a-conditioned medium” value in the assay on β-catenin signaling (increasing concentrations, 50 to 0.0006 μg/ml) is “reduced”. Besides, the “potency relative to LGR5-Fc” value in the assay on β-catenin signaling (more potent than LGR5-Fc) is “greater than 100 fold”. The “binding to RSPO2 (FACS)” value with human RSPO2 [3] was “bound”. For the same molecule, in the assay with PN7 tumors, the “tumorigenicity of cells isolated from treated mice” value is “greatly decreased tumorigenicity”. The “effect on tumor growth as single agents” value in [4] is recorded as “only a minimal effect”. Also, the “proliferation (anti-Ki67 antibody IHC)” value in assay [5] (PN7 tumors of treated mice) is “significant decrease in proliferation”. The “morphology of PN7 tumors (IHC)” value in assay [5] (treated vs untreated mice) is listed as “induced morphological changes”. In addition, the “reduction in tumor growth” value in [5] (vs control antibody, 130M23 10 mg/kg, 18R5 20 mg/kg, gemcitabine once a week, intraperitoneal) is reported as “approximately 55%”. The “effect on RSPO2-induced β-catenin signaling” value in assay [6] is “completely blocked”.
